Laboratory results as given in paper PMC10848957.

Molecular target: FakA_M, central zinc finger domain of Streptococcus suis FakA (Streptococcus suis serotype 2, strain 05ZYH33)
Assay: cross-linking

FakA_M, central zinc finger domain of Streptococcus suis FakA (domain or fragment)
stoichiometry N: 2
